# According to the DeepSol protein solubility set:
# Assay: soluble on expression in E. coli; label from the status in PepcDB or PDB records
row,Sequence,soluble on expression in E. coli
1,GPGSMNVDDFRTVIPSPVYVATRGERSGINVAVRALAPVTDVVFDMEEQFAVVCQRRRFSTYAISSWMESLDVPSIPGAAVPLVSVEPQGFSSLGFALSALQFLSSSLHVIAGYHRAPVVDIFDLENVDEETSEPQQRFNLTDVKENGNVEDGSSAYANDVMPMDRYVSLGALSSGLSVWLDSRSGKAEACTGVLTRQYTIGAHNRHTGRRDPLACVTSLCQGNPANILLGTEAGALQLWDVRCARECVAQHMTSASICRLHPSYSYPLRNVVWLNTLAGCVEAVSVGQSDMELLARRLCPDFQRSSSTFHLPPPRLSFMESSGVVACPHISSGKLLLYDGSSLVKQPNNSRTQLSSYNRGVDGKDNEYENGHCSNFGGFLREASSSSEESGEREIPLLNALPSEANALVTACTVWSNRDMFVLGDETGRVQLL,not soluble
2,GPGSMPKSKRAKIVPLTKTQAKTREDKDKLIERIREALEDYSDVYTFQLHNIRTNILQQIREERAGDSRIFLGNNKVMMIAIGRDEESAQRQNLHKLSPFLTGLCGLLFTNLSKKEVKEYFATVGAPVYARTGQTATESLVLKGGPLPQFPHSMFDHLAKLGLPIKLDRGVIVLLQDTTVCEPGDTLSAEAAQLLKLFGVQSAKFKMDLTAHWTSGVAKKVSSSASKRSEK,soluble
3,GPGSMPNEKAQTLTVAEAFAETSKALQQFNIERIRVDGLSRGNACDEEKFRMLTEQEFMREFVFHSRPCIIVGALCDWPALQRWRDDRYLFDLDEKLPMVYEKERTSKGNGEINENDSFHEDEEIVTESDAEDSKNGTSNNEAESQGTLGPRRVTVALTPNGRADAVTYVTYNAVKNESQVHDKLEGKSDFVVTEKLFMSAAELRVTLPELYRLLRANPLVPPLKSQFVDLRRPQRSIAYAQMQNNCLAEEYQHLHADIDTALDRFGTRVFGGKREAANIWLGTPASVSSMHQDWVENLYAVVRGVKEFILVPPWEGVFVPKPELPAAAFTLKAAANCKEGEEEYIFSDSPTRDGTSVPWMDVELTPAAVDDPLHIKEELRDKLHPLIAYVQPGEVLYLPALWLHRVAQHADSEDSRVIEEASTEEIAKVSRHDQKHSAPLPLIAAVNYWYDMSFTNPAVVMLREFGLLL,not soluble
4,GPGSMPQPSALQSARSFLGTVAEDSVRCDRGLDSVPHNEAGLRCLAADGNWSAVAELAERLSAAATEETAEGLSRRLQFILVQVTANFHMQRYNVAKKLVESLGDLNSERYIDPKTSESTVPFSLRFISAIIPLYIGTKMDSQQRLYALLRDCRENLGKYASAVWVARIKRVQRALVVSHYQVEQYSEALRIYNELIAVEGNADGDDMGSYALLRRMLHLHQFAALALFCGNASFANSIYQSIASINVSEAAPCVQNFHECLVDFNTGIWLSFNGKVQDSMKVFCDVATKSREYYCALGASQLMSTDVPTVSNRQLKFVADGCDALALSELCRHAFHQLLVNATTSHVVTMPYEALRGKAPATMLGGTIRTMEDYLRNDPAGLLSSDAFISNGVRLYTLEGGTQMRRLELLNDLIEVFRCDRASAPPIDKIV,not soluble
5,GPGSMPRCTTLPLSSFPSLLTFMTVCAASSSPPLPRFRVAHLCRRGKDCLALARSLSLPIVEGAEGGGGRCGCSEWRREGAGERCSVFYLSLPASNFMCINFASPLHLRSPGARHIDVQDVPMERNTLQVVASAVNAEALSGAEDHACHASPVHRVYRLRDACTTLQLILLAYKYRRCSAHSMTVAMFVEACAYDLVQGVRVLESAPLSSSPGHDSSGDAIATLEAPWFYIGSEAGGDVRVYLLLPTYADYFLDYTMHWARVAYSEMARQYVGHSLIAKLQTVGGGWASLHRADKSLACALQLHAVAQAVFDEDVVRKCRLFIGWAHLWNSEPAKALEVFYAELAAARRHGDTIQERRCLHAIQNAEHNPRLAPGGAHTGHYQLVNLWWRALA,soluble
6,GPGSMPSAPTSVTAVVQLPPLIDCHVHFREPGLEHKADIASESTAAYYGGITVACDMPNTSPPTQSVAALADKVARAKATAHAHCQLFFFFGATAEAHLQELEELWTNPAHAELKTHCCGLKLYLDNSTGNMKSSLSVVEKSFEMCGRLQIVLVAHCEQSEINDAAAAQHPYDGPASHSLRRPADSEAASVQSAIALARQCRTPLHLAHVSTAQSLDLIREARAADPTLQLTCEVTPHHLFLTTSDYSCCGARVKVNPPVRPPQHHEALWAGLLDGTVDCVGTDHAPHTIAEKDHCDAAAQPPSGMPAIEVVVPLLLTVVAGQWPHPTAAKPSALAAAEHQGRTLTLDDVVRVLHTNPNRIFNLRQPDAPHRSFDLACEWTVRGEELHSKCQWTPYEGWRLRGRVLANE,soluble
7,GPGSMQEEAISSAATGVGHVMVTFFTDSYAKAMPEESYAVPLNVLPEGLNVLVQSVLSVNDQVFDFLYNGEYITTTLQKFLSRRGVSTEELVNVEYTPALQAKESSHLPHDDWVSSVRVPFVGHSELLLTGSYDRCIRLWDADDCVAIGAHHDECVKEVVVHPMKPRSTATNTTRDSVKKRARSSLLEDFYCVSCSKDGRAAAWVFNATASKFQLLSSVKAHTDAIESIDISPGAGKYVATASWDCTVKVFEWSQVVDGATEPSAKEPLVSFTDHTRPALSCRFSAAKGAALLYSSGLDGTLKCMDVETAVLQKQYIGDHPVQGLAVRTVGGGGGGDLIIAACTDNRARLYDTRVGESTGSVKVFSGHKQWLYAASWLWRPDEGEVNGGNFFATASEDSTVRLWDLRCGTNALLTLDTSHTDGVLDVTYSGNGEIVSCGKDNSTKSFQCFKGDSLLN,not soluble
8,GPGSMRLTSRGSHNSSQVVYLLDTREFITDCSTVRQVTHFAHVHRLGSPLWLSCELASALGLTLRYMCSPLNIWSPLTGESFVQLASSPALARDTLYKFPINKEFLAPGGVLPHNSGEGSLMALSAAASSDGKPRWYNIPKDVSHLFVLPKNLCQLSVPVHRGGFRPRPFNLWVSTVIAVRMGGLAEAVKTVRTPSSFMTLVNADQMYPSALLAEKELECVLLMRKEGRLGEM,not soluble
9,GPGSMSEYADCTEVAKKALEFRQQFYQLLDNPERRGDIVALYAPNTPLLCEWNGHALPDTASIAAYLGGLPRTNHKVDCVDAQPLPGNERADSFLMTVHGVVTYDDEHKREFFQRFVIRKVEERYYIMNDYYRWLSEKE,not soluble
10,GPGSMSHVKAFDPAAQARCDPYYKRNHMGHVVCTLCDVCCSDDNNFIKHLAGKTHSLQLERLERSANREKRLAEEEELNKEAMRRAEQEKATRELLLQQTSAPHASSVTSFAPFGRPEFHYCTEHDPELYQTKVWLEFYFPQAVEGARPLHRWRSAREQEVEKPPNDDVVYLLVACEGYMTVGLKFPSKLPRTSSGLTSWGGYGNAGSDEEKGRYRCSWDPVKKLYELFFIIG,soluble
11,GPGSMSKSRRDVNKVQIGYHRAENTETVSSPHTYAYSSGKSAPSTTKPDRPTVSNIRIASAVAGLPPSRFAANASVKREKNDEESESPTAAASSVSSSLLHGAASEARTTVDGFPWSTRRVERMSFEMQNVSPPIANLLRRVLTTEVPTLAFDRVLIEENDSPVLDELLSHRLGLVPVAGPVMKMHYITESNQASFSNLDPSRVLLFELDATGAKDAAVTPVYSGQLQWVPLPGQDKTAGAVAVACQAGREECAGAAGATDHSADEDDDAVFLVHPDILLTKLGPGQRIKLKAIAVKGFGAVHAKWSPVSACYYEMKTSVELCERLTGSAAEALIKSCPAGVFGYEGGQRGAAATVVAPEKCTLCRECLRSEDKGAEAAANKGDRVRVQKDKTHVLFHIESVGQLHPAQILRFGLRLFAERCRALAEMVQSTEVHVVDASAKSLEL,not soluble
12,GPGSMSLWGGFSNPTSYSDSGLEKRLEFDFAAAVDVQTFAVEELEDVLAAAGQKLQHHFSAEGLLSLEMTQCIIILTPCKLVVTSASEVMLHQVITPTIALLTSKGVRVEWASYLRKNTTSPWCAESEMSDIMAQEYAELKAAFPAGKSFLTGPVDGHHCFNFVYDNVERIAGRKEEDVQVNVFLNDVAAGLEEVNKTTQRFHALQSGEYEVMRTFAGVPCISFETNAKAAVASPTRVQKLLDTFQPTHFTVAALQDRDADESALRCNFNAFTPYTLQNRTVNLFGEGYAFHQLLFARSAD,soluble
13,GPGSMSNAKNGSETTYFTAIANRDVEALKALIAQNRNVNEVAQDPVLYHRTPLHICVWENFVEGAKLLLDAGADVNALDDLHDSPYLLSGAEGRQEIMEHIYKNAERTMRYGSQTSLRMKTSVPDHSIVNRFGGSALIPACERGHVEMVRLLLQKGVDVNHYNYYHWTGLLEAIELGGDDREHVDIVRLLIENGADVNQVDGAGKTPLYLARKRKYKRIAALLEAAGGHE,soluble
14,GPGSMSSIPVDVLNAVTQCNEKVTAVEKEIEEFTNQVRIDFRSKIEPLFDKRHLELEKIEGFWGSAFVAVESPLMGLLNGTIDPKIVRALTDFRVKTSVRDGSICRCVSVTFRPNMFVKEGTFSRELDPSVNTLSLQPILWKPGTEKARTDSLFRFFSPECKDIEFLERALTEFDELFQNPLLAFE,not soluble
15,GPGSMSVTIYGIKNCDTMKKARIWLEDHGIDYTFHDYKKEGLDAETLDRFLKTVPWEQLLNRAGTTFRKLPEDVRSNVDAASARELMLAQPSMVKRPVLERDGKLMVGFKPAQYEAYFKL,soluble
16,GPGSMTGPFRYVITDMDGTLLSPDHFVSDYTRDTLKTLVHEHGVIPILATGRSYADVRIIADNLKAYIWCDGTAAPGARAPASPSRAPVIYLITSNGATVHNGVTHEVVFRTSIDPALAEKLLQLLPSDEEVVNTNAYQNDDWVCRIDWPKMMAVSKESGIRFIHVPHPLPSSSCALGSAAASPDAAARGIAIGDYTGISKIFFITDDAARLAALADEVHAIAKAHGGAPVSLTFSMSDCMDIMANGVTKGEALKRLFGAILPSRDGVDVVADALAHAIAFGDGLNDAEMLASVGKGCVMGNANPKLIAQHPELEVILTNAEDGVAKKLRSAFHLPL,soluble
17,GPGSMVDDFSSLSSPYVFLHGPLCSKDTCAVAAIGTTARLPYARPHSLLPLTSFLALRPAVSSGGLRHTRAYTHLLDTRVQVRIAMSEAAPPPVLGTASSAVAPQPFGGSEASRKRRLKPISFQRMAMIQEEIARIDKHLEALEASESKVVDPDSVGQHNLTTEDVIDPVVLHMLTVELCQLAASGDAVGARILLTGGADPNSRDYDGRTLLHIACMNGRLSVVTVLLEFSADASLLDRDGNTPLEVAEEYGFGDVAQVLSGYFDAGANAVPDSFTWKPPSFESTPVSIHQPDFSAVP,not soluble
18,GPGSMVKKMGRDEARAGVERRPPPMLKAERQAAFRRKVRNELLLSGRERKDAERQRMEEFRRLCKAEGIQSKRLQEYDAMREEAANKLGEKLNHIEYDQSLTNAEKRKRRYNLKRNYAGQTVMDLVQKQEKHHNALTKVEKIRKKRQEEIEAARVAKRERDEMKVKRIKERMAQNALYAQRTRKGQPVMSGRVEALLNKIQRNQQQ,soluble
19,GPGSMVSTRETLSVEEQRYLDQELPPRELLTSLRSRDRSPTDDNETDVTVPGDSFGIMRNRVAFYKPVPRDVYSGELGECFPEGCHPLRCVNPATLHHLSERFGVSIREAVKAMQNAQMDINIAIDELCRRKCIDPPAGSFGLVGLESYASETFCLVNFTLPSLEATRDDDVLDALHELTLSAAEIPLDTPTEDLVDKFVNNWTVEDGRSCKDVLDMYDLGVNKIVLLPHGDYSVEGFYVLHPVKEDTPNIGTGAAACCLDLRTGIHNRFRFHVERIADSVSEHVIRELVHYGQDVHVLRQAYWFKPEYSVEEYIRFKESLLQPSASVFEMRYAVLAVGSYALPGYRNLVEMEKLKVAQHKYEKHYEDFMSPGKWLTSDNSQLQTVAAGGGNAPGAALHMHTNGPDVALNAMETRAGPLRRTLETSIQAHGDRVFSRFYRNNHH,not soluble
20,GPHSMRYYETATSRRGLGEPRYTSVGYVDDKEFVRFDSDAENPRYEPQVPWMEQEGPEYWERITQVAKGQEQWFRVNLRTLLGYYNQSAGGTHTLQRMYGCDVGSDGRLLRGYEQFAYDGCDYIALNEDLRTWTAADMAAQITRRKWEQAGAAEYYRAYLEGECVEWLHRYLKNG,soluble
